# Publication PMC7933433
# Experiments:
# [1] = target: PGR5a fused to the N-terminal part of YFP (PGR5a-YFP^n) (cucumber (Cucumis sativus L.)); experiment: split reporter (BiFC, NanoBiT); halves of YFP, transient expression in N. benthamiana leaves, confocal microscopy on the third day; also after 30 min in the dark (state 1) or red light (state 2)
# [2] = target: cyt b6f complex of cucumber thylakoid membranes (cucumber (endogenous in cucumber thylakoids)); experiment: native gel or EMSA; blue native PAGE of thylakoid membranes (cucumber or tobacco) dissolved in an equal volume of 2% DM, 4 °C, followed by immunoblotting with anti-PGR5; leaf discs also arrested in state 1 or state 2, dark or red light, or incubated with Put
"YFP fluorescence intensity (BiFC), stronger in state 2 than in state 1 [1]",Substance,other results
67%,PsaH fused to the C-terminal part of YFP (PsaH-YFP^c) (natural protein),
,PetC fused to the C-terminal part of YFP (PetC-YFP^c) (natural protein),"YFP fluorescence intensity (BiFC), stronger in state 1 than in state 2 [1]: 64%"
,native PGR5 protein of cucumber thylakoid membranes (natural protein),"PGR5 abundance in the cyt b6f complex, higher in state 1 than in state 2 [2]: 40%"
64%,Lhcb3 fused to the C-terminal part of YFP (Lhcb3-YFP^c) (natural protein),
